According to patent publication US20240116985A1 (published 2024):
Starred links: 1 amine or outer side, 2 acyl side, 3 side chain; linkers in the order of their positions; H or OH if unused. Positions of bridges follow the written chain, without caps; N, C: chain ends. Non-standard residues stand in square brackets, D forms with d. Primed or numbered codes have the meaning given here. PyrS2″ = (S)-3-amino-1-((pent-4-en-1-yloxy)carbonyl)pyrrolidine-3-carboxylic acid (stapling residue), C=CCCCOC(=O)N1CC[C@@](N[*:1])(C(=O)[*:2])C1; B5(16) = 2-amino-2-(pent-4-en-1-yl)hept-6-enoic acid = 2,2-bis(4-pentenyl)glycine (stitching residue), C=CCCCC(CCCC=C)(N[*:1])C(=O)[*:2]; B5(24) = 2-amino-2-(pent-4-en-1-yl)hept-6-enoic acid, 2,2-bis(4-pentenyl)glycine (stitching residue), C=CCCCC(CCCC=C)(N[*:1])C(=O)[*:2]; B5(4) = 2,2-bis(4-pentenyl)glycine = 2-amino-2-(pent-4-en-1-yl)hept-6-enoic acid (stitching residue), C=CCCCC(CCCC=C)(N[*:1])C(=O)[*:2]; PyrS2 = (S)-3-amino-1-((pent-4-en-1-yloxy)carbonyl)pyrrolidine-3-carboxylic acid, C=CCCCOC(=O)N1CC[C@@](N[*:1])(C(=O)[*:2])C1; B5 = 2-amino-2-(pent-4-en-1-yl)hept-6-enoic acid, C=CCCCC(CCCC=C)(N[*:1])C(=O)[*:2]; Trp(1-Me) = Cn1cc(C[C@H](N)C(=O)O)c2ccccc21; Phe(2-Cl) = N[C@@H](Cc1ccccc1Cl)C(=O)O; Bta = N[C@@H](Cc1csc2ccccc12)C(=O)O; Lys(iPr) = CC(C)NCCCC[C@H](N)C(=O)O; αAllylPro = C=CC[C@@]1(C(=O)O)CCCN1; tBuAla = CC(C)(C)C[C@H](N)C(=O)O; hSer = N[C@@H](CCO)C(=O)O

Assays:
Bcat-Halo = target: T1, Bcat-Halo (UniProt P35222 1-781, HaloTag NanoBRET 618 Ligand bound in the assay); experiment: NanoBRET Abs IC50 in HEK293 cells; competitor TCF4-Luc on Bcat-Halo
T1 construct: Expressed by transfection in HEK293 cells; also called beta-catenin HaloTag NanoBRET construct; not shown: HaloTag
T1 sequence (looked up): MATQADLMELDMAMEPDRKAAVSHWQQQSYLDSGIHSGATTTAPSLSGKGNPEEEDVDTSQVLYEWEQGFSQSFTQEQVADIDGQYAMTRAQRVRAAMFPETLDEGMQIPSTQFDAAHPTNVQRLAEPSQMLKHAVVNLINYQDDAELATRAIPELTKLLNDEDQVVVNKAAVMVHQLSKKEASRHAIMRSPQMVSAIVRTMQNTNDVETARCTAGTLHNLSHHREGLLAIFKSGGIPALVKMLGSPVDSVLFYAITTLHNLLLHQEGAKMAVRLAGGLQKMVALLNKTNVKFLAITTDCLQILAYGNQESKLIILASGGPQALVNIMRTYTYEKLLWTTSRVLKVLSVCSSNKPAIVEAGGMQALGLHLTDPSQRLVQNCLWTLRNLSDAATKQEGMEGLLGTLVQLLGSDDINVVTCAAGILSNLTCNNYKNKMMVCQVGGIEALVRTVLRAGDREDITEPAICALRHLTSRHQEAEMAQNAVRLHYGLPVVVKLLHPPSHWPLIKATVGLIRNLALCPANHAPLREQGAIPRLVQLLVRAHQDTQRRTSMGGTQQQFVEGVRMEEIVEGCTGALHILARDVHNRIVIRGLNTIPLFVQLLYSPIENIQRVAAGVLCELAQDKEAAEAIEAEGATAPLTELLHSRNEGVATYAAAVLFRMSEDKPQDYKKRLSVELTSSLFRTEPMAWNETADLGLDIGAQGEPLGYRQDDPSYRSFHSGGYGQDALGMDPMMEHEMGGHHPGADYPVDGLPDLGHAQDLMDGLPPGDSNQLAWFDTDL

[1] = target: T2, full-length beta-Catenin (Uniprot ID P35222) (Homo sapiens (Human), UniProt P35222 2-781); experiment: fluorescence polarization competition vs 5FAM-TCF4(10-53) on full-length beta-catenin
T2 construct: also called bCat; B-Catenin
T2 sequence: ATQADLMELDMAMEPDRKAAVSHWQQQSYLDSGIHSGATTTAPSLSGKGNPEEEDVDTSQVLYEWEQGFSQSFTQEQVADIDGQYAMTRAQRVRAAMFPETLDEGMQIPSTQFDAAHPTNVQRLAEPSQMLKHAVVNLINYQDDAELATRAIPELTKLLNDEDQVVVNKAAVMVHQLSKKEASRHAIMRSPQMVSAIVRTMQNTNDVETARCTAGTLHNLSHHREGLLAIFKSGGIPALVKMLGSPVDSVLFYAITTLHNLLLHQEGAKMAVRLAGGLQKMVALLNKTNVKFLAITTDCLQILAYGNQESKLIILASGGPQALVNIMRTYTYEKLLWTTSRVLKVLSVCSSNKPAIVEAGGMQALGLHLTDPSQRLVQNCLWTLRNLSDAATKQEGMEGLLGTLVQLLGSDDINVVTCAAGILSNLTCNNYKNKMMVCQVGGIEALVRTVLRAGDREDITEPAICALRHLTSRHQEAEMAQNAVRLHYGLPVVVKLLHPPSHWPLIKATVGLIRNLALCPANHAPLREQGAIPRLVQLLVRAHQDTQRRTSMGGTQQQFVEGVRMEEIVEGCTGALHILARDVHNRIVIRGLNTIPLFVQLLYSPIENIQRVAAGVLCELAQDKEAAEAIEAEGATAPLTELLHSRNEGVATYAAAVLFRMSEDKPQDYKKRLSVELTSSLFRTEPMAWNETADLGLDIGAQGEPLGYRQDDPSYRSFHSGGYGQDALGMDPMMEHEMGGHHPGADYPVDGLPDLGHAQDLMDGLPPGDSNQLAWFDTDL
Method: (§1) The plate was incubated protected from light for 60 minutes at 20° C. prior to read. Reads were performed on a CLARIOstar plate reader (BMG Labtech) in duplicate, and data were fitted to a 1:1 binding model with hill slope using an in-house script. All provided concentrations are final concentrations.

[2] = target: T3, full-length beta-Catenin (Uniprot ID P35222) (Homo sapiens (Human), UniProt P35222 2-781); experiment: fluorescence polarization competition; full-length beta-catenin, 5FAM-TCF4(10-53) probe as competitor
T3 construct: also called bCat; B-Catenin
T3 sequence: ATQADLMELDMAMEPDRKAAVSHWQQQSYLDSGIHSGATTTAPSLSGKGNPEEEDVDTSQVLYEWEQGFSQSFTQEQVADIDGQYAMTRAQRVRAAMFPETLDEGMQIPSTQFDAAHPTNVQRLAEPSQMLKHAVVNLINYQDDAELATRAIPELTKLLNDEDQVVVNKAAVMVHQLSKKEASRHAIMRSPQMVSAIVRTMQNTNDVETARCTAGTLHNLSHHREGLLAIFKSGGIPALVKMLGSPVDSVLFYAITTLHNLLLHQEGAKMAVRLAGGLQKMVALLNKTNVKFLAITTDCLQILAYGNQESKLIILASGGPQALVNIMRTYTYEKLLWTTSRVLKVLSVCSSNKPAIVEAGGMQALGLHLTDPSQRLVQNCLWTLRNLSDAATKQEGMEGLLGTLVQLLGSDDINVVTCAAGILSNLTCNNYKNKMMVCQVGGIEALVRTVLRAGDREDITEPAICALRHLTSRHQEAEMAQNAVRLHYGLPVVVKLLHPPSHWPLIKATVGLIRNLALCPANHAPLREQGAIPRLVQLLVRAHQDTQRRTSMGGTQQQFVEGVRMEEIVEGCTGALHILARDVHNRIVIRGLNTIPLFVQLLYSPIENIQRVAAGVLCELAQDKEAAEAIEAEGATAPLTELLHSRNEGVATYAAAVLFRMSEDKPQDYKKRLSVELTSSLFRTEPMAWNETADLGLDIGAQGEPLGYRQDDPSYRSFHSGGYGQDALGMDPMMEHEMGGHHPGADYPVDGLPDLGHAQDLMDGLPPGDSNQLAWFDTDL
Method: as §1

[3] = target: T4, full-length beta-Catenin (Uniprot ID P35222) (Homo sapiens (Human), UniProt P35222 2-781); experiment: AlphaScreen competition; peptide titrated against full-length beta-catenin + biotin-TCF4(10-53)
T4 construct: The assay protocols say only 'full-length'; No tag is stated, although the AlphaScreen kit is a Histidine (Nickel Chelate) kit; also called B-Catenin; bCat
T4 sequence: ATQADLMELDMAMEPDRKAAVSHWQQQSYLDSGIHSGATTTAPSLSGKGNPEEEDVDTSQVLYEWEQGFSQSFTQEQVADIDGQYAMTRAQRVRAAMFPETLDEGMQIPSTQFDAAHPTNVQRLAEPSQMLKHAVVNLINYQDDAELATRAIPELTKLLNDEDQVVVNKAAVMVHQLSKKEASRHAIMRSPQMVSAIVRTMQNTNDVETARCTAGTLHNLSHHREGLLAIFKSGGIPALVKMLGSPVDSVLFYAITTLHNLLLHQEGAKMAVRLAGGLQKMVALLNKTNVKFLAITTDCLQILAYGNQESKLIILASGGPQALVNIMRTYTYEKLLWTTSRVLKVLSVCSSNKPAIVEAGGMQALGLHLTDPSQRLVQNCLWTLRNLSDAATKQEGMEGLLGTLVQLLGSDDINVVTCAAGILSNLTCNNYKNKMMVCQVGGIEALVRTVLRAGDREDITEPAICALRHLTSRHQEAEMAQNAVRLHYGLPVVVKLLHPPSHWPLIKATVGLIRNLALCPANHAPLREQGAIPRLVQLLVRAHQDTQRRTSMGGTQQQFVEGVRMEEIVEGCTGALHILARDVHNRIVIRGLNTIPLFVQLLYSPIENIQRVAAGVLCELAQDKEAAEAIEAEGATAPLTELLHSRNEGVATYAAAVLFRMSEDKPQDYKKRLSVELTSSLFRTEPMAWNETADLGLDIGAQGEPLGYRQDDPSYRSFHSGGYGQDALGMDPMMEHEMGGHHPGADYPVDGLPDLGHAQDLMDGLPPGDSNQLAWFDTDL
Method: as §1, with “Equal volume of the titrated peptide was added to the” for “The”, “and” for “was”, “incubated for 15 minutes at 20° C. Then 4 uL of donor and 4 uL acceptor beads at 10 ug/mL were added to the plate, for a 16 uL reaction pool and” for “incubated”

Binder | IC50 [2] | further results
Ac-[αAllylPro]DF[B5]DDAAFS[PyrS2][Phe(2-Cl)][Bta][hSer]-NH2 (staple 1-4, 4-11, Stapled (stitched) peptide composition; olefin isomer not specified) [I-1143] |  | IC50 (Bcat-Halo): 33.1 µM; IC50 [1]: 0.012 µM
Ac-[αAllylPro]DF[B5]DDAAFL[PyrS2][Phe(2-Cl)][Bta]T-NH2 (staple 1-4, 4-11, Stapled (stitched) peptide composition; olefin isomer not specified) [I-1145] |  | IC50 (Bcat-Halo): 30.6 µM; IC50 [1]: 0.018 µM
Ac-[αAllylPro]DF[B5(24)]DDAAFS[PyrS2″][Phe(2-Cl)][Bta]L-NH2 (staple 1-4, 4-11, Stapled (stitched) peptide composition; olefin isomer not specified) [I-1144] |  | IC50 (Bcat-Halo): 32.8 µM
Ac-[αAllylPro]DF[B5(16)]DDAAFL[PyrS2″][Phe(2-Cl)][Bta][dT]-NH2 (staple 1-4, 4-11, Stapled (stitched) peptide composition; olefin isomer not specified) [I-1146] |  | IC50 (Bcat-Halo): > 20 µM; IC50 [1]: 0.033 µM
Ac-[αAllylPro]NF[B5(4)]DT[Lys(iPr)]AFL[PyrS2″]F[Bta]Q-NH2 (staple 1-4, 4-11) [I-1580] | 1.43 µM | 
Ac-[αAllylPro]NQ[B5(4)]DT[Lys(iPr)]AFL[PyrS2″]F[Bta]Q-NH2 (staple 1-4, 4-11) [I-1584] | 2.44 µM | 
Ac-[αAllylPro]NS[B5(4)]DT[Lys(iPr)]AFL[PyrS2″]F[Bta]Q-NH2 (staple 1-4, 4-11) [I-1583] | 3.42 µM | 
Ac-[αAllylPro]N[Lys(iPr)][B5(4)]DT[Lys(iPr)]AFL[PyrS2]F[Bta]Q-NH2 (staple 1-4, 4-11) [I-1591] | 3.11 µM | 
Ac-[αAllylPro]NL[B5(4)]DT[Lys(iPr)]AFL[PyrS2″]F[Bta]Q-NH2 (staple 1-4, 4-11) [I-1582] | 1.22 µM | 
Ac-[αAllylPro]NW[B5(4)]DT[Lys(iPr)]AFL[PyrS2″]F[Bta]Q-NH2 (staple 1-4, 4-11) [I-1581] | 10 µM | 
XDAXADAAFVXFWQ (not fully specified; N-terminal Ac; C-terminal NH2; PL3 at 1, B5 at 4, S8 at 11 (stapled 1-4 and 4-11), Stapled peptide composition; Earlier-eluting isomer composition; also called Ac-PL3-Asp-Ala-B5-Ala-Asp-Ala-Ala-Phe-Val-S8-Phe-Trp-Gln-NH2) [I-350] |  | EC50 [3]: 10 µM
Ac-[αAllylPro]N[tBuAla][B5(4)]DT[Lys(iPr)]AFL[PyrS2″]F[Trp(1-Me)]Q-NH2 (staple 1-4, 4-11) [I-1589] | 10 µM | 
Ac-[αAllylPro]N[tBuAla][B5(4)]DT[Lys(iPr)]AFL[PyrS2″]FYQ-NH2 (staple 1-4, 4-11) [I-1585] | 10 µM | 
Ac-[αAllylPro]N[tBuAla][B5(4)]DT[Lys(iPr)]AFL[PyrS2]YWQ-NH2 (staple 1-4, 4-11) [I-1590] | 7.52 µM | 
